Molecular target: T1, SARS-CoV-2 receptor binding domain, omicron subvariant BA5 (RBDBA5) (SARS-CoV-2, Omicron BA.5, strain)
T1 construct: also called Omicron BA5 RBD
Assay: SPR; Biacore T200, […]; 25°C, HBS-EP+ ([…], pH 7.4); 1:1 binding model; triplicate
Settings: both partners purified

B1: antibody 10-40 with triple mutations (S32H heavy, R100bI heavy, Q53F light) (antibody, V domains shown)
VH: QLQLQESGPGLVKPSETLSLTCTVSGGSISSHNFYWGWIRQPPGKGLEWIASITYSGRTFYNPSLKSRVAISVDTSKNQFSLKLSSVTAADTAVYYCARTFPSYYDISGYHYLNYGMDVWGQGTTVTVSS
VL: NFMLTQPHSMSESPGKTVTISCTRSSGSIASNYVQWYQQRPGSSPTTVIYEDNFRPSGVPDRFSGSIDSSSNSASLTISGLKTEDEADYYCQSYDSSSWVFGGGTKLTVL
notes: also called combination of S32HH, R100bIH, and Q53FL
- fold improvement of binding affinity over antibody 10-40: > 5000 fold

From publication PMC10235760 (Frontiers in Immunology, 2023)
